In US20120093811A1 (published 2012):

T1: Source 1 VEGF-D, mature dimeric recombinant human VEGF-D (CSIRO) (human, UniProt O43915 89-205)
T1 construct: Whole entry named; also called Source 1 VEGF-D dimer; VEGF-D dimer
T1 sequence: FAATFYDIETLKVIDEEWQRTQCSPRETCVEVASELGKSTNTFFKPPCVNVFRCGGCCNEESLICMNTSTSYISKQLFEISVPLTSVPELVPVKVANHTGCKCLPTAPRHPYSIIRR

T2: Source 2 VEGF-D, purified recombinant human VEGF-D monomer (R&D Systems, Catalog Number 622-VD/CF) (human, UniProt O43915 93-201)
T2 sequence: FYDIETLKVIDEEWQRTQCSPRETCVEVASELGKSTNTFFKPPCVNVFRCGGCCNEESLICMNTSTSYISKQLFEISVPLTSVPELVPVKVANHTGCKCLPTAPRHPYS

T3: VEGF-D (recombinant human; source not given) (human, UniProt O43915 89-205, limits assumed)
T3 construct: also used here as target of IC50 values averaged over Source 1 and Source 2; also called vascular endothelial growth factor-D
T3 sequence: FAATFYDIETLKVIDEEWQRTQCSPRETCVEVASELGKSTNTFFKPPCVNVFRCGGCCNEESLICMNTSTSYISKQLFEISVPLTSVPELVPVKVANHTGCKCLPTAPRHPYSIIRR


Tests used:
[1] = target: T1, Source 1 VEGF-D, mature dimeric …; experiment: SPR Protocol B, KD against that of Ig-1A
Protocol: (§1) Protocol B: In the second assay format, Protocol B, the orientation of the IgGs and the VEGF-D antigen was reversed relative to Protocol A. The Source 1 VEGF-D dimer was immobilized directly on the chip surface by amine coupling and the murine anti-VEGF-D monoclonal antibody, Ig-1A or IgG variants flowed over this surface as analytes at concentrations of 4 nM, 1.33 nM, and 0.44 nM. This protocol allowed avidity effects to be controlled by reducing the density of dimeric VEGF-D immobilized on the chip and in effect reduce the bivalent binding properties of the system being analyzed.
(§2) All four flow cells on a CM5 chip were activated for 7 min at 25° C. using a mixture of NHS.EDC. Flow cell one was used as an unmodified (activated and blocked) reference against flow cells 2-4. Source 1 VEGF-D dimer was diluted to 1-3 μg/ml into 10 mM sodium acetate, pH 4, and injected over three surfaces for different lengths of time to achieve low ligand densities of 10, 15 and 20 RU to minimize avidity effects of the IgG. All surfaces were blocked for 7 min with ethanolamine (1M, pH 8.2) and pre-conditioned using five 10 s injections of 100 mM H₃PO₄; 1M NaCl. Immobilization steps were carried out at a flow rate of 30 μl/min using HBS-N running buffer.
(§3) All IgG binding experiments were performed at 25° C. using HBS-EP+ running buffer. Analytes (murine reference anti-VEGF-D monoclonal antibody and humanized variants) were injected for 200 s at a flow rate of 70 μl/min and dissociation monitored for 250 s. The antigen surfaces were regenerated with a 10 s pulse of 100 mM H₃PO₄; 1M NaCl. Analyte concentrations used for murine and humanized variants were 4 nM, 1.33 nM, and 0.44 nM. Data was processed using the reference surface and double referencing from blank injections. Binding constants for the IgG/antigen interactions were determined from the three antigen surfaces globally fitted to a 1:1 interaction model. Refractive index parameter was constant (RI=0).

[2] = target: T1, Source 1 VEGF-D, mature dimeric …; experiment: SPR Protocol A: IgG captured by anti-human Fc, VEGF-D dimer as analyte
Protocol: (§4) Protocol A: The first assay format, Protocol A, used an assay system where IgGs were captured on a biosensor chip surface using an anti-human IgG (Fc) antibody and the Source 1 VEGF-D dimer run over the chip as the analyte in solution. This ensured that all IgG molecules were presented to the antigen in an active orientation.
(§5) The SPR protocol was slightly modified to compensate for the dimeric nature of the VEGF-D. Ig-1A or IgG variants were analyzed using an anti-human capture kit as described for Anti-human IgG (Fc) capture above, except that 1000 RU of the IgG or IgG variant was captured on the anti-human chip surface. […] The kinetics generated using this approach are accurate within the experimental parameters set. This standard assay protocol is best suited to studying 1:1 interactions and thus, may not be ideal for analyzing binding between the IgG variants and the VEGF-D dimer. In light of this, Protocol B was also used.

[3] = target: T2, Source 2 VEGF-D, purified recombinant …; experiment: cell-based or functional assay
[4] = target: T1, Source 1 VEGF-D, mature dimeric …; experiment: cell-based or functional assay
[5] = target: T1, Source 1 VEGF-D, mature dimeric …; experiment: SPR Protocol A, KD against that of Ig-1A
Protocol: as §4, §5

[6] = target: T1, Source 1 VEGF-D, mature dimeric …; experiment: SPR Protocol B: VEGF-D dimer amine-coupled, IgG as analyte
Protocol: as §1, §2, §3

[7] = target: T3, VEGF-D (recombinant human; source not …); experiment: SPR (BIAcore), KD against that of scFv 1A
Protocol: (§6) scFv variants were fully characterized using a BIAcore™ biosensor. All isolated scFv samples were purified as monomer peaks by anti-FLAG affinity chromatography followed by gel filtration chromatography. BIAcore™ analysis was performed by directly immobilizing VEGF-D on a CM5 surface using amine coupling, with the scFv run as the analyte. Analysis of binding was carried out using the BIAevaluation kinetic analysis software. All repeats were separate protein expressions and were performed at 25° C.
(§7) Clones F61, A63, AR7, AW61, CJ37, DI126 and DA18 were produced in large-scale expression cultures and purified by anti-FLAG affinity chromatography and gel filtration. The binding kinetics against VEGF-D were then measured using a BIAcore™ biosensor as described previously.

[8] = target: T3, VEGF-D (recombinant human; source not …); experiment: SPR (BIAcore) off-rate ranking of scFv clones
Protocol: Screening based on scFv binding properties involved surface plasmon resonance (SPR) measurements with a BIAcore™ biosensor. scFv variants were expressed in 200 μL E. coli cultures and the supernatants used to generate crude off-rate only kinetics, which were assessed “relative” to 1A, or other variants.

[9] = target: T3, VEGF-D (recombinant human; source not …); experiment: SPR (BIAcore), VEGF-D amine-coupled on CM5, purified scFv as analyte
Protocol: as §6, §7

Fold-improvement with respect to Ig-1A [1] [fold]	Kd [2] [nM]	koff [2] [s⁻¹]	kon [2] [M⁻¹ s⁻¹]	rank in the VEGFR-3-Ba/F3 bioassay [3] [rank]	rank in the VEGFR-3-Ba/F3 bioassay [4] [rank]	Fold-improvement with respect to Ig-1A [5] [fold]	Kd [6] [nM]	koff [6] [s⁻¹]	kon [6] [M⁻¹ s⁻¹]	Fold-improvement with respect to clone 1A [7] [fold]	koff [8] [s⁻¹]	Kd [9] [nM]	koff [9] [s⁻¹]	kon [9] [M⁻¹ s⁻¹]	Binder
4.9	0.364	0.00019	530000	6	8	1.9	0.36	0.0017	4.7e+06	–	–	–	–	–	humanized IgG antibody derived from clone HH41 (antibody, V domains shown, IgG; also called HH41#1; HH41#2) VH: QVQLVQSGAEVKQPGASVKVSCKASGYTFTGYNMYWVRQAPGQGLEWMGYIDPYNGDTTYNQKFKGRVTMTTDTSTSTAYMKLRSLRSDDTAVYYCARTSYYGGMDYWGRGTLVTVAS VL: DIVMTQTPLSSPVTLGQPASISCRSSQSLVHGNGNTYLHWLQQRPGQPPRLLIYKVSNRFSGVPDRFSGSGAGTDFTLKISRVEAEDVGVYYCSQSTHVPRTFGQGTKLEIKR
5.3	0.201	7.7e-05	390000	3	3	3.5	0.33	0.001	3e+06	–	–	–	–	–	humanized IgG antibody derived from clone HH69 (antibody, V domains shown, IgG) VH: QVQLVQSGAKVKQPGASVKASCKASGYTFTGYNMYWVRQAPGQGLEWMGYIDPYSGDTTYNQKFKGRVTMTTDTSTSTAYMELRSLRSDDTAVYYCARTSYYGGMDYWGRGTLVTVAS VL: DIVMTQTPLSGPVTLGQPASISCRSSQSLVHSNGNTYLHWLQQRPGQPPRLLIYKVSNRFSGVPDRFSGSGAGTDFTLKISRVEAEDVGVYYCSQSTHVPRTFGRGTKLEIKR
5.5	0.342	~0.00018	510000	7	4	2	0.32	0.0018	5.4e+06	–	–	–	–	–	humanized IgG antibody derived from clone HW78 (antibody, V domains shown, IgG) VH: QVQLVQSGAEVKQPGASVKVSCKARGYTFTGYNMYWVRQAPGQGLEWMGYIDPYNGDTTYNQKFKGRVTMTTDTSTGTAYMKLRSLRSDDTAVYYCARTSYYGGMDYWGRGTLVTVAS VL: DIVMTQTPLSSPVTLGQPASISCRSSQSLVHSNGNTYLHWLQQRPGQPPRLLIYKVSNRFSGVPDRFSGSGAGTDFTLKISRVEAEDVGVYYCSQSTHVPRTFGQGTKLEIKR
–	–	–	–	–	–	–	–	–	–	2.7	0.00327	4.83	0.0072	1.49e+06	scFv clone A63 (scFv) scFv: QVQLVQSGAKVKQPGASVKASCKASGYTFTGYNMYWVRQAPGQGLEWMGYIDPYNGDTTYNQKFKGRVTMTTDTSTSTAYMELRSLRSDDTAVYYCARTSYYGGMDYWGRGTLVTVASGGGASGGGGSGGGGSDIVMTQTPLSSPVTLGQPASISCRSSQSLVHSNGNTYLHWLQQRPGQPPRLLIYKVSNRFSGVPDRFSGSGAGTDFTLKISRVEAEDVGVYYCSQSTHVPRTFGQGTKLEIKR
–	–	–	–	–	–	–	–	–	–	6.2	0.00167	2.12	0.00379	1.79e+06	scFv clone AR74 (scFv) scFv: QVQLVQSGAEVKQPGASVKVSCKASGYTFTGYNMYWVRQAPGQGLEWMGYIDPYNGDTTYNQKFKGRVTMTTGTSTSTAYMKLRSLRSDDTAVYYCARASYYGGMDYWGRGTLVTVASGGGASGGGGSGGGGSDIVMTQTPLSSPVTLGQPASISCRSSQSLVHSNGNTYLHWLQQRPGQPPRLLIYKVSNRFSGVPDRFSGSGAGTDFTLKISRVEAEDVGVYYCSQSTHVPRTFGQGTKLEIKR
–	–	–	–	–	–	–	–	–	–	4.2	0.00361	3.12	0.0093	2.98e+06	scFv clone DI26 (scFv, also called DI126) scFv: QVQLVQSGAKVKQPGASVKASCKASGYTFTGYNMYWVRQAPGQGLEWMGYIDPYSGDTTYNQKFKGRVTMTTDTSTSTAYMELRSLRSDDTAVYYCARTSYYGGMDYWGRGTLVTVASGGGASGGGGSGGGGSDIVMTQTPLSSPVTLGQPASISCRSSQSLVHSNGNTYLHWLQQRPGQPPRLLIYKVSNRFSGVPDRFSGSGAGTDFTLKISRVEAEDVGVYYCSQSTHVPRTFGQGTKLEIKR
–	–	–	–	–	–	–	–	–	–	3.7	0.00732	3.55	0.00995	2.81e+06	scFv clone CJ37 (scFv) scFv: QVQLVQSGAEVKQPGASVKVSCKASGYTFTGYNMYWVRQAPGQGLEWMGYIDPYNGDTTYNQKFKGRVTMTTDTSTSTAYMKLRSLRSDDTAVYYCARTSYYGGMDYWGRGTLVTVASGGGASGGGGSGGGGSDIVMTQTPLSSPVTLGQPASISCRSSQSLVHSNGNTYLHWLQQRPGQPPRLLIYKVSNRFSGVPDRFSGSGAGTDFTLKISRVEAEDVGVYYCSQSTHVPRTFGRGTKLEIKR
–	–	–	–	–	–	–	–	–	–	4	0.00335	3.31	0.00899	2.72e+06	scFv clone F61 (scFv) scFv: QVQLVQSGAEVKQPGASVKVSCKASGYTFTGYNMYWVRQAPGQGLEWMGYIDPYNGDTTYNQKFKGRVTMTTDTSTSTAYMKLRSLRSDDTAVYYCARTSYYGGMDYWGRGTLVTVASGGGASGGGGSGGGGSDIVMTQTPLSSPVTLGQPASISCRSSQSLVHSNGNTYLHWLQQRPGQPPRLLIYKVSNRFSGVPDRFSGSGAGTDFTLKISRVEAEDVGVYYCSQSTHVPRTFGQGTKLEIKR
–	–	–	–	–	–	–	–	–	–	3.1	0.00222	4.23	0.00828	1.96e+06	scFv clone AW61 (scFv) scFv: QVQLVQSGAEVKQPGASVKVSCKASGYTFTGYNMYWVRQAPGQGLEWMGYIDPYNGDTTYNQKFKGRATMTTDTSTSTAYMKLRSLRSDDTAVYYCARTSYYGGMDYWGRGTLVTVASGGGASGGGGSGGGGSDIVMTQTPLSSPVTLGQPASISCRSSQSLVHSNGNTYLHWLQQRPGQPPRLLIYKVSNRFSGVPDRFSGSGAGTDFTLKISRVEAEDVGVYYCSQSTHVPRTFGQGTKLEIKR
